Measured values taken from publication PMC10686824, “Bacterial cGAS senses a viral RNA to initiate immunity”.

T1: His6-MBP-Ssc-CdnE03 (UniProt P0DXA6 1-324)
T1 sequence: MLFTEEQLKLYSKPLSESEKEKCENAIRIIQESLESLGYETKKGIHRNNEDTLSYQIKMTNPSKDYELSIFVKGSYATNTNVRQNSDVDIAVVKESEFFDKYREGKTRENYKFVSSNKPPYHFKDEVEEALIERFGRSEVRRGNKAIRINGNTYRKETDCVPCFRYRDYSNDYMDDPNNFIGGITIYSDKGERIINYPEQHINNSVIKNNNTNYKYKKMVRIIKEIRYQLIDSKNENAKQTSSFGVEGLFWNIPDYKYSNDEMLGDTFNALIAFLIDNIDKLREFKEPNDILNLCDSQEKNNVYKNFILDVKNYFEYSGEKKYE


Molecular target: T1, His6-MBP-Ssc-CdnE03
Experiment: pull-down; total RNA of infected cells; EMSA: 50 mM CAPSO pH 9.4, 50 mM KCl, 5 mM Mg acetate, 1 mM DTT, 4 C 25 min, 1 uM RNA, 2% agarose in 1x TB; pull-down on cobalt resin, buffer not given in material
Conditions: protein: recombinant, tags: His6-MBP

Binder	binding result	binding result (hairpin (predicted))
200-nt RNA from 80alpha-vir(cabRNA57) (structured_RNA) RNA: AGAGGAGAACCUCAAGAGGCUUACAGUAAGAAAUAUGACCAUUUAAACGAUGAAGUGGAAAAAGAGGUUACUUACACAAUCACACCAACUUUUGAAGAGCGUCAGAGAUCUAUUGACCACAUACUAAAAGUUCAUGGUGCGUAUAUCGACAAAAAAGAAAUUACUCAGAAGAAUAUUGAGAUUAAUAUUGGUGAGUACGA	binds	–
UUCCGGAAGAUGAUUAGUCAUGUAUGAAAUACUUGAUCUAAAAAAUAAA (structured_RNA) [cabRNA PhiJ4 (49 nt)]	–	binds
80-nt RNA from 80alpha-vir(cabRNA100) (structured_RNA) RNA: AUGGUGCGUAUAUCGACAAAAAAGAAAUUACUCAGAAGAAUAUUGAGAUUAAUAUUGGUGAGUACGAUGACGAAAGUUAA	binds	–
GAAUGUUAUGGCAAUGCUACUAAGUCAGCUGUGC (structured_RNA) [cabRNA PhiJ1/2 (34 nt)]	–	binds
